# Experimental data: patent publication US20190170753A1
# Experiments:
# [1] = biological target: 92-133 biotin labeled HCV core peptide (hepatitis C virus) (UniProt Q9WMX2); experiment: capture EIA; Ab 125 ng/mL; bt-peptide 500 ng/mL
# [2] = biological target: C113T109N biotin labeled HCV core peptide (hepatitis C virus); experiment: capture EIA; Ab 125 ng/mL; bt-peptide 500 ng/mL
# [3] = biological target: Mut1T110N biotin labeled HCV core peptide (hepatitis C virus); experiment: capture EIA; Ab 125 ng/mL; bt-peptide 500 ng/mL
# [4] = biological target: Mut6T110S biotin labeled HCV core peptide (hepatitis C virus); experiment: capture EIA; Ab 125 ng/mL; bt-peptide 500 ng/mL
# [5] = biological target: 92-133 biotin labeled HCV core peptide (hepatitis C virus) (UniProt Q9WMX2); experiment: capture EIA; Ab 250 ng/mL; bt-peptide 500 ng/mL
# [6] = biological target: C113T109N biotin labeled HCV core peptide (hepatitis C virus); experiment: capture EIA; Ab 250 ng/mL; bt-peptide 500 ng/mL
# [7] = biological target: Mut1T110N biotin labeled HCV core peptide (hepatitis C virus); experiment: capture EIA; Ab 250 ng/mL; bt-peptide 500 ng/mL
# [8] = biological target: Mut6T110S biotin labeled HCV core peptide (hepatitis C virus); experiment: capture EIA; Ab 250 ng/mL; bt-peptide 500 ng/mL
# [9] = biological target: 92-133 biotin labeled HCV core peptide (hepatitis C virus) (UniProt Q9WMX2); experiment: capture EIA; Ab 500 ng/mL; bt-peptide 500 ng/mL
# [10] = biological target: C113T109N biotin labeled HCV core peptide (hepatitis C virus); experiment: capture EIA; Ab 500 ng/mL; bt-peptide 500 ng/mL
# [11] = biological target: Mut1T110N biotin labeled HCV core peptide (hepatitis C virus); experiment: capture EIA; Ab 500 ng/mL; bt-peptide 500 ng/mL
# [12] = biological target: Mut6T110S biotin labeled HCV core peptide (hepatitis C virus); experiment: capture EIA; Ab 500 ng/mL; bt-peptide 500 ng/mL
# [13] = biological target: 92-133 biotin labeled HCV core peptide (hepatitis C virus) (UniProt Q9WMX2); experiment: capture EIA; Ab 1000 ng/mL; bt-peptide 500 ng/mL
# [14] = biological target: C113T109N biotin labeled HCV core peptide (hepatitis C virus); experiment: capture EIA; Ab 1000 ng/mL; bt-peptide 500 ng/mL
# [15] = biological target: Mut1T110N biotin labeled HCV core peptide (hepatitis C virus); experiment: capture EIA; Ab 1000 ng/mL; bt-peptide 500 ng/mL
# [16] = biological target: Mut6T110S biotin labeled HCV core peptide (hepatitis C virus); experiment: capture EIA; Ab 1000 ng/mL; bt-peptide 500 ng/mL
# [17] = biological target: 92-133 biotin labeled HCV core peptide (hepatitis C virus) (UniProt Q9WMX2); experiment: capture EIA; Ab 2000 ng/mL; bt-peptide 500 ng/mL
# [18] = biological target: C113T109N biotin labeled HCV core peptide (hepatitis C virus); experiment: capture EIA; Ab 2000 ng/mL; bt-peptide 500 ng/mL
# [19] = biological target: Mut1T110N biotin labeled HCV core peptide (hepatitis C virus); experiment: capture EIA; Ab 2000 ng/mL; bt-peptide 500 ng/mL
# [20] = biological target: Mut6T110S biotin labeled HCV core peptide (hepatitis C virus); experiment: capture EIA; Ab 2000 ng/mL; bt-peptide 500 ng/mL
# [21] = biological target: 92-133 biotin labeled HCV core peptide (hepatitis C virus) (UniProt Q9WMX2); experiment: capture EIA; Ab 62.5 ng/mL; bt-peptide 500 ng/mL
# [22] = biological target: C113T109N biotin labeled HCV core peptide (hepatitis C virus); experiment: capture EIA; Ab 62.5 ng/mL; bt-peptide 500 ng/mL
# [23] = biological target: Mut1T110N biotin labeled HCV core peptide (hepatitis C virus); experiment: capture EIA; Ab 62.5 ng/mL; bt-peptide 500 ng/mL
# [24] = biological target: Mut6T110S biotin labeled HCV core peptide (hepatitis C virus); experiment: capture EIA; Ab 62.5 ng/mL; bt-peptide 500 ng/mL
# [25] = biological target: 92-133 biotin labeled HCV core peptide (hepatitis C virus) (UniProt Q9WMX2); experiment: capture EIA; Ab 0.977 ng/mL; bt-peptide 500 ng/mL
# [26] = biological target: C113T109N biotin labeled HCV core peptide (hepatitis C virus); experiment: capture EIA; Ab 0.977 ng/mL; bt-peptide 500 ng/mL
# [27] = biological target: Mut1T110N biotin labeled HCV core peptide (hepatitis C virus); experiment: capture EIA; Ab 0.977 ng/mL; bt-peptide 500 ng/mL
# [28] = biological target: Mut6T110S biotin labeled HCV core peptide (hepatitis C virus); experiment: capture EIA; Ab 0.977 ng/mL; bt-peptide 500 ng/mL
# [29] = biological target: 92-133 biotin labeled HCV core peptide (hepatitis C virus) (UniProt Q9WMX2); experiment: capture EIA; Ab 1.953 ng/mL; bt-peptide 500 ng/mL
# [30] = biological target: C113T109N biotin labeled HCV core peptide (hepatitis C virus); experiment: capture EIA; Ab 1.953 ng/mL; bt-peptide 500 ng/mL
# [31] = biological target: Mut1T110N biotin labeled HCV core peptide (hepatitis C virus); experiment: capture EIA; Ab 1.953 ng/mL; bt-peptide 500 ng/mL
# [32] = biological target: Mut6T110S biotin labeled HCV core peptide (hepatitis C virus); experiment: capture EIA; Ab 1.953 ng/mL; bt-peptide 500 ng/mL
# [33] = biological target: 92-133 biotin labeled HCV core peptide (hepatitis C virus) (UniProt Q9WMX2); experiment: capture EIA; Ab 3.906 ng/mL; bt-peptide 500 ng/mL
# [34] = biological target: C113T109N biotin labeled HCV core peptide (hepatitis C virus); experiment: capture EIA; Ab 3.906 ng/mL; bt-peptide 500 ng/mL
# [35] = biological target: Mut1T110N biotin labeled HCV core peptide (hepatitis C virus); experiment: capture EIA; Ab 3.906 ng/mL; bt-peptide 500 ng/mL
# [36] = biological target: Mut6T110S biotin labeled HCV core peptide (hepatitis C virus); experiment: capture EIA; Ab 3.906 ng/mL; bt-peptide 500 ng/mL
# [37] = biological target: 92-133 biotin labeled HCV core peptide (hepatitis C virus) (UniProt Q9WMX2); experiment: capture EIA; Ab 31.25 ng/mL; bt-peptide 500 ng/mL
# [38] = biological target: C113T109N biotin labeled HCV core peptide (hepatitis C virus); experiment: capture EIA; Ab 31.25 ng/mL; bt-peptide 500 ng/mL
# [39] = biological target: Mut1T110N biotin labeled HCV core peptide (hepatitis C virus); experiment: capture EIA; Ab 31.25 ng/mL; bt-peptide 500 ng/mL
# [40] = biological target: Mut6T110S biotin labeled HCV core peptide (hepatitis C virus); experiment: capture EIA; Ab 31.25 ng/mL; bt-peptide 500 ng/mL
# [41] = biological target: 92-133 biotin labeled HCV core peptide (hepatitis C virus) (UniProt Q9WMX2); experiment: capture EIA; Ab 7.813 ng/mL; bt-peptide 500 ng/mL
# [42] = biological target: C113T109N biotin labeled HCV core peptide (hepatitis C virus); experiment: capture EIA; Ab 7.813 ng/mL; bt-peptide 500 ng/mL
# [43] = biological target: Mut1T110N biotin labeled HCV core peptide (hepatitis C virus); experiment: capture EIA; Ab 7.813 ng/mL; bt-peptide 500 ng/mL
# [44] = biological target: Mut6T110S biotin labeled HCV core peptide (hepatitis C virus); experiment: capture EIA; Ab 7.813 ng/mL; bt-peptide 500 ng/mL
# [45] = biological target: 92-133 biotin labeled HCV core peptide (hepatitis C virus) (UniProt Q9WMX2); experiment: capture EIA; Ab 15.625 ng/mL; bt-peptide 500 ng/mL
# [46] = biological target: C113T109N biotin labeled HCV core peptide (hepatitis C virus); experiment: capture EIA; Ab 15.625 ng/mL; bt-peptide 500 ng/mL
# [47] = biological target: Mut1T110N biotin labeled HCV core peptide (hepatitis C virus); experiment: capture EIA; Ab 15.625 ng/mL; bt-peptide 500 ng/mL
# [48] = biological target: Mut6T110S biotin labeled HCV core peptide (hepatitis C virus); experiment: capture EIA; Ab 15.625 ng/mL; bt-peptide 500 ng/mL
# [49] = biological target: 92-133 biotin labeled HCV core peptide (hepatitis C virus) (UniProt Q9WMX2); experiment: capture EIA; Ab 15.6 ng/mL; bt-peptide 500 ng/mL (summary of Table 7)
# [50] = biological target: C113T109N biotin labeled HCV core peptide (hepatitis C virus); experiment: as above
# [51] = biological target: Mut1T110N biotin labeled HCV core peptide (hepatitis C virus); experiment: as above
# [52] = biological target: Mut6T110S biotin labeled HCV core peptide (hepatitis C virus); experiment: as above
substance,measurement,setting,value
C11-3 (ABT-4) monoclonal antibody,signal at 492 nm,[1],1.83 A492
same,signal at 492 nm,[2],0.147 A492
same,signal at 492 nm,[3],0.127 A492
same,signal at 492 nm,[4],2.02 A492
same,signal at 492 nm,[5],1.68 A492
same,signal at 492 nm,[6],0.0963 A492
same,signal at 492 nm,[7],0.0857 A492
same,signal at 492 nm,[8],1.83 A492
same,signal at 492 nm,[9],1.95 A492
same,signal at 492 nm,[10],0.0882 A492
same,signal at 492 nm,[11],0.0765 A492
same,signal at 492 nm,[12],2.24 A492
same,signal at 492 nm,[13],1.87 A492
same,signal at 492 nm,[14],0.0806 A492
same,signal at 492 nm,[15],0.0721 A492
same,signal at 492 nm,[16],2.15 A492
same,signal at 492 nm,[17],1.45 A492
same,signal at 492 nm,[18],0.0707 A492
same,signal at 492 nm,[19],0.0915 A492
same,signal at 492 nm,[20],1.73 A492
same,signal at 492 nm,[21],1.92 A492
same,signal at 492 nm,[22],0.202 A492
same,signal at 492 nm,[23],0.155 A492
same,signal at 492 nm,[24],2.11 A492
same,signal at 492 nm,[25],0.116 A492
same,signal at 492 nm,[26],0.104 A492
same,signal at 492 nm,[27],0.0755 A492
same,signal at 492 nm,[28],0.101 A492
same,signal at 492 nm,[29],0.134 A492
same,signal at 492 nm,[30],0.114 A492
same,signal at 492 nm,[31],0.0854 A492
same,signal at 492 nm,[32],0.0964 A492
same,signal at 492 nm,[33],0.183 A492
same,signal at 492 nm,[34],0.0833 A492
same,signal at 492 nm,[35],0.079 A492
same,signal at 492 nm,[36],0.227 A492
same,signal at 492 nm,[37],1.55 A492
same,signal at 492 nm,[38],0.16 A492
same,signal at 492 nm,[39],0.107 A492
same,signal at 492 nm,[40],1.54 A492
same,signal at 492 nm,[41],0.562 A492
same,signal at 492 nm,[42],0.119 A492
same,signal at 492 nm,[43],0.0966 A492
same,signal at 492 nm,[44],0.344 A492
same,signal at 492 nm,[45],1.01 A492
same,signal at 492 nm,[46],0.116 A492
same,signal at 492 nm,[47],0.11 A492
same,signal at 492 nm,[48],0.807 A492
same,signal at 492 nm,[49],1.01 A492
same,signal at 492 nm,[50],0.116 A492
same,signal at 492 nm,[51],0.11 A492
same,signal at 492 nm,[52],0.807 A492
